Laboratory results from publication PMC10016340 (Chemical Science, 2023).

Assays:
[1] = target: αSOs-Alexa488 (Homo sapiens, UniProt P37840); test: FIDA binding of αSOs to neuronal proteins in solution; settings: up to 150 μM ligand, in solution
[2] = target: α-syn monomers, oligomers or fibrils (Homo sapiens, UniProt P37840); test: Dot-blot binding assay; settings: 0.05–0.4 μg immobilized protein, 33 μg mL^−1 α-syn monomer, oligomer or fibril
[3] = target: α-syn (Homo sapiens, UniProt P37840); test: ThT aggregation kinetics of α-syn; type: biochemical; settings: 20 μM α-syn, 5 μM ligand; α-syn alone half-time 44 h

B1: Ubiquitin carboxyl-terminal hydrolase isozyme L1 (UCH-L1) (protein)
chain: MQLKPMEINPEMLNKVLSRLGVAGQWRFVDVLGLEEESLGSVPAPACALLLLFPLTAQHENFRKKQIEELKGQEVSPKVYFMKQTIGNSCGTIGLIHAVANNQDKLGFEDGSVLKQFLSETEKMSPEDRAKCFEKNEAIQAAHDAVAQEGQCRVDDKVNFHFILFNNVDGHLYELDGRMPFPVNHGASSEDTLLKDAAKVCREFTEREQGEVRFSAVALCKAA
[1]
  Change in Rh of αSOs-Alexa488 on titration with ligand: little change in Rh
[2]
  Binding preference for α-syn species in dot blot: bound most strongly to fibrils
[3]
  Reduction of half-time of aggregation: 3 fold

B2: NAD-dependent protein deacetylase sirtuin-2 (protein)
chain: MAEPDPSHPLETQAGKVQEAQDSDSDSEGGAAGGEADMDFLRNLFSQTLSLGSQKERLLDELTLEGVARYMQSERCRRVICLVGAGISTSAGIPDFRSPSTGLYDNLEKYHLPYPEAIFEISYFKKHPEPFFALAKELYPGQFKPTICHYFMRLLKDKGLLLRCYTQNIDTLERIAGLEQEDLVEAHGTFYTSHCVSASCRHEYPLSWMKEKIFSEVTPKCEDCQSLVKPDIVFFGESLPARFFSCMQSDFLKVDLLLVMGTSLQVQPFASLISKAPLSTPRLLINKEKAGQSDPFLGMIMGLGGGMDFDSKKAYRDVAWLGECDQGCLALAELLGWKKELEDLVRREHASIDAQSGAGVPNPSTSASPKKSPPPAKDEARTTEREKPQ
[1]
  Change in Rh of αSOs-Alexa488 on titration with ligand: little change in Rh
